Blank lines part the entries; values can stand above or below the substance they belong to.
Tests used:
[1] = target: extracellular domain of human LEPR (amino acids 22-839 of P48357, Isoform B) with N-terminal myc-myc tag, GPI-anchored on HEK293 cells (HEK293/hLEPR-GPI) (human) (UniProt P48357); assay: FACS, 10 nM Ab, HEK293/hLEPR-GPI, 1 uM Leptin
[2] = target: extracellular domain of human LEPR (amino acids 22-839 of P48357, Isoform B) with N-terminal myc-myc tag, GPI-anchored on HEK293 cells (HEK293/hLEPR-GPI) (human) (UniProt P48357); assay: FACS, 10 nM Ab, HEK293/hLEPR-GPI, no added Leptin
[3] = target: human LEPR CRH1 (D1)-MMH (human) (UniProt P48357); assay: Luminex, myc-captured protein on beads
[4] = target: extracellular domain portion of LEPR protein expressed with a C-terminal human Fc tag (hLEPR.hFc) (human); assay: blocking ELISA, hLeptin coated
[5] = target: extracellular domain of human LEPR (amino acids 22-839 of P48357, Isoform B) with N-terminal myc-myc tag, GPI-anchored on HEK293 cells (HEK293/hLEPR-GPI) (human) (UniProt P48357); assay: FACS, HEK293/hLEPR-GPI, 1 uM Leptin
[6] = target: full length human LEPR (amino acids 1-1165 of P48357, Isoform B) on cells (human) (UniProt P48357); assay: FACS, HEK293/Stat3-luc/hLEPR-FL, no Leptin
[7] = target: extracellular domain of human LEPR (amino acids 22-839 of P48357, Isoform B) with N-terminal myc-myc tag, GPI-anchored on HEK293 cells (HEK293/hLEPR-GPI) (human) (UniProt P48357); assay: FACS, HEK293/hLEPR-GPI, no Leptin
[8] = target: extracellular domain of human LEPR (amino acids 22-839 of P48357, Isoform B) with N-terminal myc-myc tag, GPI-anchored on HEK293 cells (HEK293/hLEPR-GPI) (human) (UniProt P48357); assay: FACS, HEK293/hLEPR-GPI, no added Leptin
[9] = target: extracellular domain of human LEPR (amino acids 22-839 of P48357, Isoform B) with N-terminal myc-myc tag, GPI-anchored on HEK293 cells (HEK293/hLEPR-GPI) (human) (UniProt P48357); assay: FACS, 70 nM Ab, HEK293/hLEPR-GPI, no Leptin
[10] = target: human LEPR extracellular domain expressed with a C-terminal myc-myc-hexahistidine tag (hLEPR.mmh) (human) (UniProt P48357); assay: SPR, captured mAb, 37C
[11] = target: human LEPR extracellular domain expressed with a C-terminal mouse IgG2a Fc tag (hLEPR.mFc) (human); assay: SPR, captured mAb, 37C
[12] = target: Macaca fascicularis LEPR extracellular domain expressed with a C-terminal myc-myc-hexahistidine tag (mfLEPR.mmh) (Macaca fascicularis); assay: SPR, captured mAb, 37C
[13] = target: human LEPR extracellular domain expressed with a C-terminal myc-myc-hexahistidine tag (hLEPR.mmh) (human) (UniProt P48357); assay: SPR, captured mAb, 25C
[14] = target: human LEPR extracellular domain expressed with a C-terminal mouse IgG2a Fc tag (hLEPR.mFc) (human); assay: SPR, captured mAb, 25C
[15] = target: Macaca fascicularis LEPR extracellular domain expressed with a C-terminal myc-myc-hexahistidine tag (mfLEPR.mmh) (Macaca fascicularis); assay: SPR, captured mAb, 25C
[16] = target: full length human LEPR (amino acids 1-1165 of P48357, Isoform B) on cells (human) (UniProt P48357); assay: FACS, 70 nM Ab, HEK293/Stat3-luc/hLEPR-FL, no Leptin

Sequence of extracellular domain of human LEPR (amino acids 22-839 of P48357, Isoform B) with N-terminal myc-myc tag, GPI-anchored on HEK293 cells (HEK293/hLEPR-GPI) (human) (P48357 22-839, one chain of several): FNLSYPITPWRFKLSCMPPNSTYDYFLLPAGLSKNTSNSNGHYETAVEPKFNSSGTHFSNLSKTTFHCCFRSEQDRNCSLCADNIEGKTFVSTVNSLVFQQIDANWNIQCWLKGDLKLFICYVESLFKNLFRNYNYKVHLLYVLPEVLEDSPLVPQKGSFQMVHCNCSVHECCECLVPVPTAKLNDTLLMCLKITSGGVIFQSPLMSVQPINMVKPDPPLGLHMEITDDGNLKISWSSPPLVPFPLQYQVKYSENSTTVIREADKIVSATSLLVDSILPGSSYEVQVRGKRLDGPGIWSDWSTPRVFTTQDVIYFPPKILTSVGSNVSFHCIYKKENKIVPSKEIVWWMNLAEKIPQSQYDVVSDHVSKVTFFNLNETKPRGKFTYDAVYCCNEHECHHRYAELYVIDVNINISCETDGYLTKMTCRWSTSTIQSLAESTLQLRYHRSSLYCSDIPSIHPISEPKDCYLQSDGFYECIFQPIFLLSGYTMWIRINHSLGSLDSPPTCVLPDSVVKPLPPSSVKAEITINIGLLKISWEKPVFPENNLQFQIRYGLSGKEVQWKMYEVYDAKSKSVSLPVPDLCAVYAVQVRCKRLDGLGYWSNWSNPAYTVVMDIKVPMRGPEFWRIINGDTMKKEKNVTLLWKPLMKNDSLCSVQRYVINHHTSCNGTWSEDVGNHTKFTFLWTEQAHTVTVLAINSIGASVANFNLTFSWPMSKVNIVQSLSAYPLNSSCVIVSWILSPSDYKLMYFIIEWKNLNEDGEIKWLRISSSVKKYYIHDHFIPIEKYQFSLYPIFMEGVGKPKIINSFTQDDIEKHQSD
Sequence of extracellular domain portion of LEPR protein expressed with a C-terminal human Fc tag (hLEPR.hFc) (human) (chain, as listed by the source limits assumed): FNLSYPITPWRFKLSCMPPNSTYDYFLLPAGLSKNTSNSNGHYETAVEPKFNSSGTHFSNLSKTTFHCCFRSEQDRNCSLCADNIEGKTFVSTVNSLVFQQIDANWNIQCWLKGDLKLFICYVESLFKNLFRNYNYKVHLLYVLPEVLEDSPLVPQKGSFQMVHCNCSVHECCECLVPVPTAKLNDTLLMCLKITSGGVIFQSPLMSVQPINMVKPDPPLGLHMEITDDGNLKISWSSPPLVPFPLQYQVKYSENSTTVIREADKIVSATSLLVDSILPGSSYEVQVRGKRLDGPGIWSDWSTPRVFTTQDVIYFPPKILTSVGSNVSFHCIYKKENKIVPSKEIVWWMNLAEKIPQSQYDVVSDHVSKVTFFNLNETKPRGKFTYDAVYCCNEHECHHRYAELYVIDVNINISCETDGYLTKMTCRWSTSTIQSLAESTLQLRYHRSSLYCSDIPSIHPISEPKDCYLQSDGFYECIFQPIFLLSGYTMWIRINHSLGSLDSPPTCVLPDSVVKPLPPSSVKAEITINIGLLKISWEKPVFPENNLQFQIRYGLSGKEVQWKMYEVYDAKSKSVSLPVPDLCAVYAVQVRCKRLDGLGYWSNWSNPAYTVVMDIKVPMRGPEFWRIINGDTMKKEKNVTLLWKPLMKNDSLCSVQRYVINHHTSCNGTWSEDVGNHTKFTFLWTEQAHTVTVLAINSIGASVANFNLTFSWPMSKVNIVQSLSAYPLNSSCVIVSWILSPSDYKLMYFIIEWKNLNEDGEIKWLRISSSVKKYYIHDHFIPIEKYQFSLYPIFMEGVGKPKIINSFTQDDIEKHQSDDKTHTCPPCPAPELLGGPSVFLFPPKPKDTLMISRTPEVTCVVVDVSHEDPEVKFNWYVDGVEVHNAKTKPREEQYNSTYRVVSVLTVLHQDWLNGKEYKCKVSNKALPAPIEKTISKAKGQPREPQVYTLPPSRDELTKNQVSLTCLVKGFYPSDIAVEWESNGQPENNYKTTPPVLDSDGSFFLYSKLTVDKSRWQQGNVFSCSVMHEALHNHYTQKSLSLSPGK
Sequence of Macaca fascicularis LEPR extracellular domain expressed with a C-terminal myc-myc-hexahistidine tag (mfLEPR.mmh) (Macaca fascicularis) (Q9MYL0 other isoform, or with tags, fused parts or gaps): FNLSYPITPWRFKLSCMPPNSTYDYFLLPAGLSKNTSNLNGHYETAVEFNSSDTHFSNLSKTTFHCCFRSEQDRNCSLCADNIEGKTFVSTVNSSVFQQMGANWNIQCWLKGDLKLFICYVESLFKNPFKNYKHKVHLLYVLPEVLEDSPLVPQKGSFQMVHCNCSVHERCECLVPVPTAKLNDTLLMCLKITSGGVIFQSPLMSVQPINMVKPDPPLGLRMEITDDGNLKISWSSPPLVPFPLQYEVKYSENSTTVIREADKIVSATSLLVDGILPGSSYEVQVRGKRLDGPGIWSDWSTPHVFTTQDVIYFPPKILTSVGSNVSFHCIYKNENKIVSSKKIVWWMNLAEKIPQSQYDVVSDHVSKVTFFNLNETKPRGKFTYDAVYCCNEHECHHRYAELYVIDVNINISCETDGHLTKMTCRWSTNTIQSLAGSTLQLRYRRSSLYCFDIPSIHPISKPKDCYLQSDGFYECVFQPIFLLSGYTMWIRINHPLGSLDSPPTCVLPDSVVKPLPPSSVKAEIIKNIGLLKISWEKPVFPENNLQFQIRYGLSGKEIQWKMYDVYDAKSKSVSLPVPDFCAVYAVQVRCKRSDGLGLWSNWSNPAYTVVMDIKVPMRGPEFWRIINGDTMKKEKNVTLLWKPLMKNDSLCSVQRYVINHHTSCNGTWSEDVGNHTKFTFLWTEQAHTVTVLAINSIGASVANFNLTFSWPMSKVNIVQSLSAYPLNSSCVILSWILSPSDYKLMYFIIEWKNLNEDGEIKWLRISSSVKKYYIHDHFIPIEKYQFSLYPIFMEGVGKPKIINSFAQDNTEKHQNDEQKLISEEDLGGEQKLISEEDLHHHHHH
Sequence of full length human LEPR (amino acids 1-1165 of P48357, Isoform B) on cells (human) (P48357 22-1165): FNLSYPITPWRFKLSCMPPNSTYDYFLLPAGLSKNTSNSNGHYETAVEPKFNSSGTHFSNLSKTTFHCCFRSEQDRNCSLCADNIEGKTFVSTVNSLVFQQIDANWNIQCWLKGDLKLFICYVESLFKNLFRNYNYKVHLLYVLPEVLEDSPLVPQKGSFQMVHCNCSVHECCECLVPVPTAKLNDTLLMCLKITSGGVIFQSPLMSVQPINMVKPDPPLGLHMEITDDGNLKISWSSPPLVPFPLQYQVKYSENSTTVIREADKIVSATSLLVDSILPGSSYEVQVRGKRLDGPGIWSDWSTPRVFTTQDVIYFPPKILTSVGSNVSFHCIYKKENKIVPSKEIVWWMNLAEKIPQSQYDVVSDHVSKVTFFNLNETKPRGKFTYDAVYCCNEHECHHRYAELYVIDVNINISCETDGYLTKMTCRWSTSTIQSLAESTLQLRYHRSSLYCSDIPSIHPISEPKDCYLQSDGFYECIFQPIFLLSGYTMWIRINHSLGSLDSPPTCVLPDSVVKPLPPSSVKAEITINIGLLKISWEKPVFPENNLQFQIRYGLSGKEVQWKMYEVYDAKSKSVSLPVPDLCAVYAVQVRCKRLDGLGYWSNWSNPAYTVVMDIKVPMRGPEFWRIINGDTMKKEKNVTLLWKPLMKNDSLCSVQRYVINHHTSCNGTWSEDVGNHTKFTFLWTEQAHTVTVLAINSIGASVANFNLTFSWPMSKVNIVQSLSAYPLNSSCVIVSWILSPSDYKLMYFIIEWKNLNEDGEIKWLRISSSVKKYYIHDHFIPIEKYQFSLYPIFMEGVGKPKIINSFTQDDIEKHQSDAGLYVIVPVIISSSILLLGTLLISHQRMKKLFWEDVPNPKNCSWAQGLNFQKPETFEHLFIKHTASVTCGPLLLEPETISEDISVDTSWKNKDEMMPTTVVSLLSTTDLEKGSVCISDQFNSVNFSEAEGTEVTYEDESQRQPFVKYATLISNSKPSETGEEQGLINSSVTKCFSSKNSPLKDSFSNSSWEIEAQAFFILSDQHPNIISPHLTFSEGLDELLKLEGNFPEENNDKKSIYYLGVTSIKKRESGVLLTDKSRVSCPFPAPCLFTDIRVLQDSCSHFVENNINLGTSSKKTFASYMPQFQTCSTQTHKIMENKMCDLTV
Sequence of human LEPR extracellular domain expressed with a C-terminal myc-myc-hexahistidine tag (hLEPR.mmh) (human) (P48357 other isoform, or with tags, fused parts or gaps): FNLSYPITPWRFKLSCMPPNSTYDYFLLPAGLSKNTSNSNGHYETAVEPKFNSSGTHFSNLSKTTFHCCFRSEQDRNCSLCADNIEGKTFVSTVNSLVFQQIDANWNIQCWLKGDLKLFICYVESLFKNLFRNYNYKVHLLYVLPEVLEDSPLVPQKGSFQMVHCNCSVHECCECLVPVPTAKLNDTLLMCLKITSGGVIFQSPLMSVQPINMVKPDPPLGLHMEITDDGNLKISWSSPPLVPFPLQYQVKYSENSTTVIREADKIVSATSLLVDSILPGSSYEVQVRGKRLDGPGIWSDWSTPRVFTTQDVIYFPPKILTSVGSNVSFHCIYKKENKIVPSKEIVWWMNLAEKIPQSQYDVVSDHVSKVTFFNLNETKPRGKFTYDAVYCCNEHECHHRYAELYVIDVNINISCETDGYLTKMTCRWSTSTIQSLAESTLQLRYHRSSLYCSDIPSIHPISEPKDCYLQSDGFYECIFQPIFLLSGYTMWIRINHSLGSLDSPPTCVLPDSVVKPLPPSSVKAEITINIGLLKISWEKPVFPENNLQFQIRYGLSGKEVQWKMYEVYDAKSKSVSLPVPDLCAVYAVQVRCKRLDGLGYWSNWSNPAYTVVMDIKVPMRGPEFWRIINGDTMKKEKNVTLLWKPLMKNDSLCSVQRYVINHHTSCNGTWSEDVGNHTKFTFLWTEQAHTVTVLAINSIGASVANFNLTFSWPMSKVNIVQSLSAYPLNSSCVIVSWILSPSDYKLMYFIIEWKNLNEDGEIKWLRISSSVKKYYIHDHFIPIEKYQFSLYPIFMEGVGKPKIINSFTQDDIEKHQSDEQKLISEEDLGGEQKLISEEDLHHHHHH
Sequence of human LEPR CRH1 (D1)-MMH (human) (P48357 22-229 limits assumed): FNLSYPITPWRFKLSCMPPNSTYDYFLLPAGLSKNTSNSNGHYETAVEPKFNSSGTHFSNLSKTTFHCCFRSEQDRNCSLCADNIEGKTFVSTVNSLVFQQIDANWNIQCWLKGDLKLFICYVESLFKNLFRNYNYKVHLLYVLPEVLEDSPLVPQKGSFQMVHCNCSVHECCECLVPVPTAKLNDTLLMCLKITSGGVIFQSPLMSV

Binding Ratio (normalized to unstained) [1]: 112 fold | Binding Ratio (normalized to unstained) [2]: 2350 fold | Luminex MFI [3]: 14 MFI | 500 nM Ab Blocking of 10 nM hLEPR.hFc Binding to hLeptin (% blockade) [4]: 99%
Substance: Comparator mAb (Fab9F8 described in Fazeli et al. 2006 and Carpenter et al. 2012) (antibody)

Binding Ratio (normalized to unstained) [5]: 3 fold | Binding Ratio (normalized to unstained) [6]: 1 fold | Binding Ratio (normalized to unstained) [7]: 1 fold | Binding Ratio (normalized to unstained) [8]: 3 fold
Substance: Alexa Fluor-647 conjugated secondary antibody (Jackson ImmunoResearch Laboratories Inc., #109-547-003), alone

Binding Ratio (normalized to unstained) [1]: 4 fold | Binding Ratio (normalized to unstained) [9]: 2 fold | Binding Ratio (normalized to unstained) [2]: 6 fold | 100 nM hLEPR-MMH Bound (RU) [10]: 6 RU | 100 nM hLEPR-mFc Bound (RU) [11]: 1 RU | 100 nM mfLEPR.MMH Bound (RU) [12]: 1 RU | 100 nM hLEPR-mmH Bound (RU) [13]: 4 RU | 100 nM hLEPR-mFc Bound (RU) [14]: -2 RU | 100 nM mfLEP.MMH Bound (RU) [15]: 0 RU | Binding Ratio (normalized to unstained) [16]: 2 fold | 500 nM Ab Blocking of 10 nM hLEPR.hFc Binding to hLeptin (% blockade) [4]: -3%
Substance: Isotype Control monoclonal antibody

500 nM Ab Blocking of 10 nM hLEPR.hFc Binding to hLeptin (% blockade) [4]: 32%
Substance: Mouse IgG2a Isotype control (antibody)
